Assays:
[1] = molecular target: T1, Human CD79b, endogenous on diffuse large B-cell lymphoma cell lines (human, UniProt P40259 29-229); assay: flow cytometry on OCI-LY10 cells (endogenous CD79b and CD20; the trispecific also has a CD20 arm)
T1 construct: On HBL-1, OCI-LY10 and Carnaval cells, which also carry CD20; also called Igβ
T1 sequence: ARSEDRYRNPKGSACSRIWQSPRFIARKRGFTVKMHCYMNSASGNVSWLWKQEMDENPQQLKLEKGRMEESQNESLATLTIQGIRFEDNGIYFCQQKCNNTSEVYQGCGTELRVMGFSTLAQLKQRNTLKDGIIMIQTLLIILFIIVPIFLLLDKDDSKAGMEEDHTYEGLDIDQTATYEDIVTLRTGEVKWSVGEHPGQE

[2] = molecular target: T1, Human CD79b, endogenous on diffuse …; assay: flow cytometry on Carnaval cells (endogenous CD79b and CD20; the trispecific also has a CD20 arm)
[3] = molecular target: T1, Human CD79b, endogenous on diffuse …; assay: flow cytometry on HBL-1 cells (endogenous CD79b and CD20; the trispecific also has a CD20 arm)
[4] = molecular target: T2, Human CD79b long isoform, recombinant extracellular domain (CD9W8.001) (human, UniProt P40259 29-159); assay: SPR Biacore 8K, antibody captured by anti-human Fc, CD79b in solution, 25 C, 1:1 Langmuir
T2 construct: extracellular domain; also called hu CD79b long
T2 sequence (looked up): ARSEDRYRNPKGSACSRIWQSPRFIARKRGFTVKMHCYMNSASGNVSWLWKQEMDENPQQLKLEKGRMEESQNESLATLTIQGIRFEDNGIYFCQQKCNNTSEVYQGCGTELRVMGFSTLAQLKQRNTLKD
Description: (§1) General Protocol for SPR Affinity Assessment: Affinity assessment of the bispecific and trispecific constructs against human CD79b were measured using recombinantly expressed extracellular domain of CD79b short and long isoforms (CD9W7.001 and CD9W8.001, respectively) by Surface Plasmon Resonance (SPR) using a Biacore 8 k SPR system (Biacore) at 25° C. in HBSP+ buffer. Cross-reactivity of the same antibody panel was also assessed against cyno and mouse antigens (CD9W1.001 and CD9W105.001, respectively). Briefly, a C1 sensor chip was immobilized with anti-human Fc (target immobilization levels of >400 RU) using vendor recommended amino coupling protocol. The test antibodies were captured through immobilized anti-Fc and was followed by the injection of different CD79b constructs at different concentration series (human CD79b short and long isoforms: 30 nM-0.37 nM at 3-fold dilutions; cyno and mouse CD79b: 3000 nM-37 nM at 3-fold dilutions). The association and dissociation phases were measured for 2 or 3 minutes and 30 minutes, respectively.
(§2) The raw binding sensorgrams were processed using Biacore Insight software (Biacore) by double-referencing and the processed sensorgrams were analyzed for cross-reactivity and fitted to a 1:1 Langmuir model to obtain on-rates, off-rates and affinities.

[5] = molecular target: T3, Human CD79b short isoform, recombinant extracellular domain (CD9W7.001) (human, UniProt P40259 29-159); assay: as above
T3 chain: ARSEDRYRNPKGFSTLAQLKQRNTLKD
Description: as §1, §2

[6] = molecular target: T4, recombinant cynomolgus PSMA (cynomolgus, UniProt A0A2K5VNZ0 44-750); assay: SPR (Biacore 8K), antibody captured on anti-Fc, PSMA in solution; average of 3
T4 construct: also called cy PSMA; cyno PSMA
Description: (§3) The binding affinity of anti-PSMA to the recombinant human or cynomolgus PSMA was determined by surface plasmon resonance (SPR) using a Biacore 8K instrument (ELN PSMA-00721). The antibodies were captured on a goat anti-Fc antibody-modified C1 chip and titrated with 3-fold serial dilutions of PSMA antigen spanning concentrations of 100 nM to 3.7 nM (human PSMA) or […] 22.2-600 nM for cyno PSMA. The association and dissociation were monitored for 3 and 60 minutes, respectively, using a flow rate of 50 μL/min. Raw binding data was referenced by subtracting the analyte binding signals from blanks and analyzed using a 1:1 Langmuir binding model by the Biacore Insight evaluation software to obtain the kinetics which were used to calculate the binding affinity. The anti-PSMA were captured using an anti-human Fc antibody and the antigens were injected in solution.

recombinant human PSMA = molecular target: T5, recombinant human PSMA (human, UniProt Q04609 44-750); assay: SPR (Biacore 8K), antibody captured on anti-Fc, PSMA in solution; average of 2
T5 construct: also called hu PSMA; prostate-specific membrane antigen
T5 sequence (Q04609 44-750 limits assumed): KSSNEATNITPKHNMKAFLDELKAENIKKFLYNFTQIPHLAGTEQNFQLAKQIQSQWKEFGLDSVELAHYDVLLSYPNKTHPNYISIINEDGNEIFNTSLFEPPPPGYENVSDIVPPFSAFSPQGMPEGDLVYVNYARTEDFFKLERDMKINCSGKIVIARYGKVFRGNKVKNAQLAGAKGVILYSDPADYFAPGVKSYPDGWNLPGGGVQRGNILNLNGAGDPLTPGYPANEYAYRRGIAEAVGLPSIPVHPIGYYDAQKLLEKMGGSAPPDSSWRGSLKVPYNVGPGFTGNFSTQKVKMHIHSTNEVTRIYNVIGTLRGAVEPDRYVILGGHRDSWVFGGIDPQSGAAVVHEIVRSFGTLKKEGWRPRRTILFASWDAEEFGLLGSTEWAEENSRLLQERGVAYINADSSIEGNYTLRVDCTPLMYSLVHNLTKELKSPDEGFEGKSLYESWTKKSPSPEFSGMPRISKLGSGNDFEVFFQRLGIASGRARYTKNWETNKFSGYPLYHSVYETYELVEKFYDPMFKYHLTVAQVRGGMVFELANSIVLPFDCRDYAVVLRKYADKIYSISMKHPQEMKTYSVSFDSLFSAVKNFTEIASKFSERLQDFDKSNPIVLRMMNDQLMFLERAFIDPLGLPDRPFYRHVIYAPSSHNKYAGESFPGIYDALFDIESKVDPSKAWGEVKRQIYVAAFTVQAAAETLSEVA
Description: as §3

[7] = molecular target: T4, recombinant cynomolgus PSMA; assay: as above
Description: as §3

B1: C923B74 (other)
heavy: QVQLQQSGPGLVKPSQTLSLTCAISGDSVSSNSATWNWIRQSPSRGLEWLGRTYYRSKWYNDYTVSVKSRITINPDTSKNQFSLQLNSVTPEDTAVYYCTRVDIAFDYWGQGTLVTVSSASTKGPSVFPLAPSSKSTSGGTAALGCLVKDYFPEPVTVSWNSGALTSGVHTFPAVLQSSGLYSLSSVVTVPSSSLGTQTYICNVNHKPSNTKVDKKVEPKSCDKTHTCPPCPAPEAAGGPSVFLFPPKPKDTLMISRTPEVTCVVVSVSHEDPEVKFNWYVDGVEVHNAKTKPREEQYNSTYRVVSVLTVLHQDWLNGKEYKCKVSNKALPAPIEKTISKAKGQPREPQVYTLPPSREEMTKNQVSLSCAVKGFYPSDIAVEWESNGQPENNYKTTPPVLDSDGSFFLVSKLTVDKSRWQQGNVFSCSVMHEALHNRFTQKSLSLSPGK
light: QTVVTQPPSVSEAPRQRVTISCSGSSSNIGNHGVNWYQQLPGKAPKLLIYNDDLLPSGVSDRFSGSTSGTSGSLAISGLQSEDEADYYCAAWDDSLNGVVFGGGTKLTVLGQPKAAPSVTLFPPSSEELQANKATLVCLISDFYPGAVTVAWKADSSPVKAGVETTTPSKQSNNKYAASSYLSLTPEQWKSHRSYSCQVTHEGSTVEKTVAPTECS
chain: EIVLTQSPATLSASPGERVTLSCSASSSVSYMNWYQQKPGQAPRRWIYDSSKLASGVPARFSGSGSGRDYTLTISSLEPEDFAVYYCQQWSRNPPTFGGGTKVEIKGGSEGKSSGSGSESKSTGGSQVQLVQSGAEVKKPGSSVKVSCKASGYTFTRSTMHWVKQAPGQGLEWIGYINPSSAYTNYNQKFQGRVTLTADKSTSTAYMELSSLRSEDTAVYYCASPQVHYDYAGFPYWGQGTLVTVSSEPKSSDKTHTCPPCPAPEAAGGPSVFLFPPKPKDTLMISRTPEVTCVVVSVSHEDPEVKFNWYVDGVEVHNAKTKPREEQYNSTYRVVSVLTVLHQDWLNGKEYKCKVSNKALPAPIEKTISKAKGQPREPQVYTLPPSREEMTKNQVSLWCLVKGFYPSDIAVEWESNGQPENNYKTTPPVLDSDGSFFLYSKLTVDKSRWQQGNVFSCSVMHEALHNHYTQKSLSLSPGKGGSEGKSSGSGSESKSTGGSAIQLTQSPSSLSASVGDRVTITCRASSSVSYIHWFQQKPGKAPKPLIYATSNLASGVPSRFSGSGSGTDFTLTISSLQPEDFATYYCQQWTSNPPTFGQGTKLEIKGGSEGKSSGSGSESKSTGGSQVQLVQSGAEVKKPGSSVKVSCKASGYTFTSYNMHWVRQAPGQGLEWMGAIYPGNGDTSYAQKFQGRVTITADKSTSTAYMELSSLRSEDTAVYYCARSTYYGGDWYFNVWGQGTLVTVSS
notes: Trispecific IgG1 antibody; HC1/LC form the CD79b Fab; HC2 is CD3 scFv-Fc-linker-CD20 scFv; also called CD79bxCD20xCD3 trispecific; CD9B330-N31S / CD3B2030-N106A-scFv-LH-C20B22
B1 showed an EC50 [1] of 66000 pM, an EC50 [2] of 23000 pM and an EC50 [3] of 52000 pM. It also gave a Kd [4] of 23 pM and a Kd [5] of 390 pM.

B2: PS3B1391 (bispecific antibody, human IgG1, kappa, L234A L235A)
chain: EIVLTQSPATLSASPGERVTLSCSASSSVSYMNWYQQKPGQAPRRWIYDSSKLASGVPARFSGSGSGRDYTLTISSLEPEDFAVYYCQQWSRNPPTFGGGTKVEIKGGSEGKSSGSGSESKSTGGSQVQLVQSGAEVKKPGSSVKVSCKASGYTFTRSTMHWVKQAPGQGLEWIGYINPSSAYTNYNQKFQGRVTLTADKSTSTAYMELSSLRSEDTAVYYCASPQVHYDYAGFPYWGQGTLVTVSSEPKSSDKTHTCPPCPAPEAAGGPSVFLFPPKPKDTLMISRTPEVTCVVVSVSHEDPEVKFNWYVDGVEVHNAKTKPREEQYNSTYRVVSVLTVLHQDWLNGKEYKCKVSNKALPAPIEKTISKAKGQPREPQVYTLPPSREEMTKNQVSLWCLVKGFYPSDIAVEWESNGQPENNYKTTPPVLDSDGSFFLYSKLTVDKSRWQQGNVFSCSVMHEALHNHYTQKSLSLSPGK
heavy: EVQLVESGGGLVKPGGSLRLSCVASGFTFSFYSMNWVRQAPGKGLDWVSSISSSGNYIYYADSVKGRFTISRDNAKNSLHLHMNSLKAEDTAMYFCARSYSGSYDAFDFWGQGTMVTVSSASTKGPSVFPLAPSSKSTSGGTAALGCLVKDYFPEPVTVSWNSGALTSGVHTFPAVLQSSGLYSLSSVVTVPSSSLGTQTYICNVNHKPSNTKVDKKVEPKSCDKTHTCPPCPAPEAAGGPSVFLFPPKPKDTLMISRTPEVTCVVVSVSHEDPEVKFNWYVDGVEVHNAKTKPREEQYNSTYRVVSVLTVLHQDWLNGKEYKCKVSNKALPAPIEKTISKAKGQPREPQVYTLPPSREEMTKNQVSLSCAVKGFYPSDIAVEWESNGQPENNYKTTPPVLDSDGSFFLVSKLTVDKSRWQQGNVFSCSVMHEALHNRFTQKSLSLSPGK
light: EIVMTQSPGTLSLSPGERATLSCRASQSVSSSFLAWYQQKPGQAPRLLISGASSRATGIPDRFSVSGSGTDFTLTISRLEPEDFAVYYCQQYGVSPWTFGQGTKVEIKRTVAAPSVFIFPPSDEQLKSGTASVVCLLNNFYPREAKVQWKVDNALQSGNSQESVTEQDSKDSTYSLSSTLTLSKADYEKHKVYACEVTHQGLSSPVTKSFNRGEC
notes: HC 1: N-term scFv LH CD3B2030 N106A; HC 2: N-term Fab PSMHB49SC1133_011A11_1; LC1 is given as NA; also called PS3B1391.002
B2 was tested, and the Kd [6] was 126 pM, the koff [6] was 1.96e-05 s⁻¹ and the kon [6] was 157000 M⁻¹ s⁻¹. It also gave a Kd (recombinant human PSMA) of 100 pM, a koff (recombinant human PSMA) of 4.8e-05 s⁻¹ and a kon (recombinant human PSMA) of 480000 M⁻¹ s⁻¹.

B3: PS3B1505 (bispecific antibody, human IgG1, lambda, L234A L235A)
heavy 1: QVQLQQSGPRLVRPSQTLSLTCAISGDSVFNNNAAWSWIRQSPSRGLEWLGRTYYRSKWLYDYAVSVKSRITVNPDTSRNQFTLQLNSVTPEDTALYYCARGYSSSFDYWGQGTLVTVSSASTKGPSVFPLAPSSKSTSGGTAALGCLVKDYFPEPVTVSWNSGALTSGVHTFPAVLQSSGLYSLSSVVTVPSSSLGTQTYICNVNHKPSNTKVDKKVEPKSCDKTHTCPPCPAPEAAGGPSVFLFPPKPKDTLMISRTPEVTCVVVSVSHEDPEVKFNWYVDGVEVHNAKTKPREEQYNSTYRVVSVLTVLHQDWLNGKEYKCKVSNKALPAPIEKTISKAKGQPREPQVYTLPPSREEMTKNQVSLTCLVKGFYPSDIAVEWESNGQPENNYKTTPPVLDSDGSFLLYSKLTVDKSRWQQGNVFSCSVMHEALHNHYTQKSLSLSPGK
light 1: QSALTQPASVSGSPGQSITISCTGTSSNIGTYKFVSWYQQHPDKAPKVLLYEVSKRPSGVSSRFSGSKSGNTASLTISGLQAEDQADYHCVSYAGSGTLLFGGGTKLTVLGQPKAAPSVTLFPPSSEELQANKATLVCLISDFYPGAVTVAWKADSSPVKAGVETTTPSKQSNNKYAASSYLSLTPEQWKSHRSYSCQVTHEGSTVEKTVAPTECS
heavy 2: EVQLVESGGGLVQPGGSLRLSCAASGFTFSSYAMSWVRQAPGKGLEWVSAISGGIGSTYYADSVKGRFTISRDNSKNTLWLQMNSLRAEDTAVYYCAKDAVGATPYYFDYWGQGTLVTVSSASTKGPSVFPLAPSSKSTSGGTAALGCLVKDYFPEPVTVSWNSGALTSGVHTFPAVLQSSGLYSLSSVVTVPSSSLGTQTYICNVNHKPSNTKVDKKVEPKSCDKTHTCPPCPAPEAAGGPSVFLFPPKPKDTLMISRTPEVTCVVVSVSHEDPEVKFNWYVDGVEVHNAKTKPREEQYNSTYRVVSVLTVLHQDWLNGKEYKCKVSNKALPAPIEKTISKAKGQPREPQVYTLPPSREEMTKNQVSLTCLVKGFYPSDIAVEWESNGQPENNYKTTPPVLDSDGSFFLYSRLTVDKSRWQQGNVFSCSVMHEALHNHYTQKSLSLSPGK
light 2: QSVLTQPPSVSAAPGQKVTISCSGSSSNIGINYVSWYQQLPGTAPKLLIYDNNKRPSGIPDRFSGSKSGTSATLGITGLQTGDEADYYCGTWDSSLSAVVFGGGTKLTVLGQPKAAPSVTLFPPSSEELQANKATLVCLISDFYPGAVTVAWKADSSPVKAGVETTTPSKQSNNKYAASSYLSLTPEQWKSHRSYSCQVTHEGSTVEKTVAPTECS
notes: HC1 CD3B376-Fab x HC2 PSMB896-G100A IgG1 DuoBody; also called PS3B1505.001
Binder B3 has a Kd [7] of 5010 pM, a koff [7] of 0.00124 s⁻¹ and a kon [7] of 429000 M⁻¹ s⁻¹. For the same binder, the Kd (recombinant human PSMA) was 393 pM, the koff (recombinant human PSMA) was 9.1e-05 s⁻¹ and the kon (recombinant human PSMA) was 232000 M⁻¹ s⁻¹.
